# Experiment: soluble on expression in E. coli; label from the status in PepcDB or PDB records
row,Sequence,soluble on expression in E. coli
1,MANELATEGASGVDAPRIGPRLKAARQAQRLTLDDLAASCGITKGYLSKIERDHASASVATLVRICAALNIPVGSLFESSAAGEVVRADNYPPISFGGERMAEFLLTPFGERRIQSLLSRIEPGGGSGSETYELPVDVAFVYVVSGRICISFNGPGAGEDVSLATGDAFTFSPQLPHSFRALGDDTATVLWILTPALPDDVRPTSR,not soluble
2,MANEPQKSDDNGQAAEAVVTDDEIVLQDQQLKTIEDEQKSVPLVATLAPFSILCAEYDNETSAAFLSKATELSEVYGEIRYIRGDGNCFYRAILVGLIEIMLKDRARLEKFIASSRDWTRTLVELGFPDWTCTDFCDFFIEFLEKIHSGVHTEEAVYTILNDDGSANYILMFFRLITSAFLKQNSEEYAPFIDEGMTVAQYCEQEIEPMWKDADHLAINSLIKAAGTRVRIEYMDRTAAPNGGWHYDIPSDDQQIAPEITLLYRPGHYDVIYKKDSTEASEIEN,not soluble
3,MANFTAADVKRLRELTGAGMLACKNALAETDGDFDKAVEALRIKGAKDVGKRAERATAEGLVAAKDGALIELNCETDFVAKNAEFQTLADQVVAAAAAAKPADVDALKGASIGDKTVEQAIAELSAKIGEKLELRRVAIFDGTVEAYLHRRSADLPPAVGVLVEYRGDDAAAAHAVALQIAALRARYLSRDDVPEDIVASERRIAEETARAEGKPEQALPKIVEGRLNGFFKDAVLLEQASVSDNKKTVKALLDVAGVTVTRFVRFEVGQA,not soluble
4,MANGTVLHFRFNVKQIRAKIVRKSYRFFPNDTAGHIRNMHDTMNKIFENSPPAFSYKPIETLNKCIAKVKSDVCHSTGGICKAAMDNVTNWVYNTTEGLFTTGTRLIV,not soluble
5,MANHKPEIVITYCTQCQWLLRAAWLAQELLSTFADDLGRVALEPGTGGIFRITCNGVQIWERKADGGFPEAKVLKQRVRDQVDPQRDLGHNDRLEHHHHHH,soluble
6,MANMKENEKVIMEKGIHTDFKENMTYGEYLQLDSLLSSQKRLSDHHDEMLFIVIHQASELWMKLILHELNAAIEFIKQDKLQPAFKMLARVSKIQSQIIQSWDILATLTPSEYIEFRDSLGQASGFQSYQYRMIEYALGYKTPHALKIYEKDPELHARLHKALHAPSLYDVAIQALVKEGFPIHKDVLNRDITQPYEEDATVEAAWLEVYADVKKYWNLYQLAEKLIDIEDWLQQWRFRHMKTVERIIGHKMGTGGSSGVSYLKRVLDQQFFPELWNVRTKLMAGDPNSLEHHHHHH,soluble
7,MANRCRLKPYNRRQNNACSNRTHTLPANGLRNLRLLDLRTKVTELKHIGGQSTAAIADLAGEMRRLAKKSKMLLKGLWPFLSSTISAFKINQSLFKHYYKTVQLLNCKHRKKNY,not soluble
8,MANSSPCMKAVRVPKSEAEQVRRLAEKLGVKDKSRRITATGDYVEIPIIDSAESFFKGYTIVEQDNPVFSRKRSLREILRGKVPEELIPTNYKVIGDIVVVKLDERAREYAKVIGEALMQINPCKAVWCDYGRYGMKRKPRMELIAGEGSVTEHRENGCRFRIDVAKVMFSLGNQAERMRIARLVEDGEVVVDMFAGIGYFSIPIAVHSKARRIYSIEINPESYKLLLENIKLNDVGNIVPILGDSQFVTPEGVADRVVMGHIYCHDYLHTAIRALKERGVVHYHEATPEAVIDRPVRRVEKACRKMGKKCRILGFKKVKNYSPGVYHVVVDAEVY,not soluble
9,MANSSRRTTAFSEAEKAAVYRALLTRRDIRHFRPDPIPEEVLERLYQAFHAAPSVGLTQPWAIVEIRERATKERVFALHQEARARERALFQGKAQRVYDRLRLEGLLEAPLHLAVFQRPVARSLGHHTMPETLAYSVVLAVGNLWTAARAEGIGVGWVSILEPEAVARLLGAPPDYRLLAYLCLGYPRAWPDEPLLERAGWRQREPLLRYRERFP,soluble
10,MAPCLENVACVNLSAMPPAPPSPQPVSHKQAATLCRQGRTCALKSGSNESGGSVTSTYTSYRLISQDIGKSLERVSKQPDVARETEYYREKIGSVKSIDDFMADTRLYNYALKAHGLEDMAYAKAFIRKVLTEGASDKNAFANKLSDNRYAELAKSLDFAGLGAAATATEAAKSGVIGNYARQTLEQEAGDDNNGVRLALYFERKAPTIKSGLDFLADDALAQVFRTTFNLPDAFAAADVDKQAALIEKSINIKDLQDPEKVGKLLERFTIMWEMQNPSTTYDPLAVFGSSSGYGISPDLLISINSLKLGGKAAALEHHHHHH,soluble
11,MAPDDTVNTLFQVYKTISFWKVLKNTLVIEFGRFFPWMGGKRKIYRVCLGMEIGEKTAIAYKVMPDLFFPEKILIGENSIIGYHTTILTHEYLLSEYRVGEVVIGRDVMVGANVTILPGTVIGDGAVIAAGAVVSVDVPAGSFAYGNPLIIKEKATLTLEHHHHHH,soluble
12,MAPPAQPPPVAVKNTKEAWTKFMKKKAEQAVYPSKESSTLQPKYLFDASTLVLPMCFECRRASRHLEMAINLCSICRANFEAQIASRFFRHDVLLVKRKLEANQDTTNLKE,not soluble
13,MAPPVLKNEDSDLAVREPAAKKSKKSNGKAQAVKSESSESMFMTEATTDENIYPDATFQSYEEFDQKFNVWKAKNLHPFRVASSESLRTEDGSISEKFKYRYVVFHCARYGVPRMRGEGKRPNQNYLPCSCTAMIRLNFQFHEQCLRLTSLETRHSNHTICKDLYEKMCVKEEKRKHVTPRRTMSGPKSRSSSVATAGNADTSLISDRSINVKKEPSEERADSEHSHGQSPVDLHYEVTRPYEVSPSAPISEITTPFVLPTQKVGLNDLVPTSQFSPMDYQSLQNQIILNQVKLNAMTNNVYNPFGNWPASSLVPTPAPPFLTPTPSQVSPALSSSVDENEAPKIFHSLEAVRPIPLRPSQNSAFYQMLNSSSTSPIIAVTKAEVDSVLGAASRLLNDNHLPEDVLHSRVKQLNGLISQWTHS,not soluble
14,MAPSTEDPDTVVEAQRRGSFSKKKNANGWNKVELVDQCAKQMGSEDKQPGGGDVKTENDPSKNGLGSATSNFIQSSVPPSHQTLSNPLQLSPPAEASVAQQSGASQVFPTFQAALGASSDELLQPNATSSSTSSSASTSSIVPVVKFTNQTAPNGSTVATSVGQNVRLTINGKRVGRPPGTFKRPQNNAANSSNSGNDSDMMGDHDLTCRWKSCNSSFQTLKALVDHVQESHVQSTEQEHHAWRCEWEGCDRNETFKALYMLIVHVRRHTGEKPNKCEYPGCGKEYSRLENLKTHRRTHTGEKPYKCEFADCEKAFSNASDRAKHQNRTHSNLKPYSCQIPQCTKSYTDPSSLRKHIKAVHGDDEYEKAKKSRPANYSNRRRPDHRLAPPTGAMSHPYLATPNSGASVVAHSSVHQQNFINMALAQHHHNAQRAQQLMAATGNVMPMMDPASAAAAAQAQAHHQAQAQMLQTHMMQQAQIQAAAQMQAQVQHQAAMQAHAMQQAQMVLQNNLLGAQSLLSPFSPLLPPSRAPNVMAMLQTPPTPTSVAPMFDIMTSRAPMAPVVSAPTAPAPLVPAPVPASPVFDELREQMREVEPLQQQQQQEPMDQDLQDIRVDGDSDDEDEEEPRTPSGALLLPRGGNNGDGGFGGSGSSRASSGSGTMELSAAPISQNGSRASGSGERGMRSFLIADILQLAADFQNERLLSDVLDLAIFDTRDVRSLHNIYQVYIRAHKAIPITRRPLDWNETHQLHNLYHDPRFNRAEHQDSPAIRDRDTRFWRTIAEANTMRQRQIEPVPLDDDDEGYFDEMVHRVQNGRLNEQFMEGFESDDDDGFEDEDDVPGLGIAVYRGRRRVRREALKQANLDIQEAETAGRNVGGFGDEEDRNNRGHDQDRSFLDHYYPPMVVVVETESPQIVRDQEMMRQFEEAKKNVETDEIKKRAEAMQFGTSSSHHHTKTLLIQRALFDKTSSVRRSLLQFITISVDQEELRQSCHATSAPQGAHVVHNVVDEFDSIMRAQEDSNNRILLSLDIPAPSAVTGVSGSITHADNSALQLQQEQPTSSFSSWFPEDDPIYALPPPPPPPAPPRRRRSADNKDDSENIPKKPRHQF,not soluble
15,MAPTQAQKVLEAFEDFLKCLDLESYQEKYRPIKTVEQDLPRELNPLPDLYDHYWKPNGNTLHFPDFETFFDQWWEKRLRPLNEFIRKYFWGCSYEFVRLGLEARLYRTAVSIWTQFHFCYRWNASCQLRLTATWELDAQGIDAQIQAEDRLIGIQIKKETYRSEAREGNRFLRRREHSALLEVPYTLQSPEELERKAQRARTREEAYRLWVKIAHHLERLPNGFVIFRESYVKDLENFLKQNATTLSGLIPWDKVAREALTGP,soluble
16,MAQLYYKYGTMNSGKTIEILKVAHNYEEQGKPVVIMTSALDTRDGFGIVSSRIGMRREAIPISNDMDIFTFIAQLEEKPYCVLIDESQFLSKQNVYDLARVVDELNVPVMAFGLKNDFQNNLFEGSKHLLLLADKIDEIKTICQYCSKKATMVLRTENGKPVYEGDQIQIGGNETYIPVCRKHYFNPDI,not soluble
17,MAQLYYRYGTMNSGKTIEILKVAYNYEEQGKGVVIMTSALDTRDGVGYVSSRIGMKRPALAIEETTDIFGYIRDLPEKPYCVLVDEAQFLKRHHVYDLARVVDELDIPVMAFGLKNDFRNELFEGSKYLLLLADKIDEIKTICQYCKKKATMVLRTQDGLPVYDGEQIQIGGNETYISVCRKHYFAPMITSNKEQNYDNLEHHHHHH,soluble
18,MAQMTMVQAINDALKTELKNDQDVLIFGEDVGVNGGVFRVTEGLQKEFGEDRVFDTPLAESGIGGLAMGLAVEGFRPVMEVQFLGFVFEVFDAIAGQIARTRFRSGGTKTAPVTIRGPFGGGVHTPELHADNLEGILAQSPGLKVVIPSGPYDAKGLLISSIRSNDPVVYLEHMKLYRSFREEVPEEEYTIDIGKANVKKEGNDISIITYGAMVQESMKAAEELEKDGYSVEVIDLRTVQPIDVDTIVASVEKTGRAVVVQEAQRQAGVGAAVVAELSERAILSLEAPIGRVAAADTIYPFTQAENVWLPNKNDIIEKAKETLEF,not soluble
19,MAQMYFYYSAMNAGKSTTLLQSAFNYQERGMNPLIFTAAIDDRFGVGKVSSRIGLEAEAHLFHADTDLLHVIATLHEAEPRHCILMDECQFLSKEQVYQLTEVVDKLDIPVLCYGLRTDFLGELFEGSKYLLSWADKLIELKTICHCGRKANMVIRTDEHGNAISEGDQVAIGGNDKYVSVCRQHYKEALGR,not soluble
20,MAQRNLDYRLLKDRRNEYGVSQNKLAIACGLSRTYLNLIENGGVTASTKTMRKIFDQLESFNPDLPLTLLFDYVRIRFSTTDVRKIIQELLHLKFEYMLHEDYAFYSYQEQYVMGDIVVMLSHEEDKGVLLELKGRGCRQFETFLLAQKRSWYDFFEDCLKTGGVMKRLDLAINDRVGLLDISDLTKKCQKEECISLFRTFKSYRSGELLKADEKDGMGNTLYIGSLKSEVYFCLYEKDYEQYIKLGIPLDQTETKNRFEIRLKNDRAYHAIQDLLKGRSIESTTFSIINRYLRFADKVEGKRRTNWPLNEQWGRFIGRNRKEIQLTSEPKPYTIERTLNWLGRQVAPTWKMAKELDRLNQTTYIQDMVRNARLSDQHKKILEQQSMAIENLIV,not soluble
21,MAQSKILLYYKFTPIADPKAMMLWQRDMCELLGLKGRILISEHGINGTVGGDMDACKRYVRKMREYPGFRGTEFKWSDGGAEDFPKLSVKVRDEIVAFGAPGELKVDEKGVIGGGVHLKPEEVNKLVEERGDDVVFFDGRNAMEAQIGKFKNAVVPDVRTTHDFIRELESGKYDWMKDKPVVSYCTGGIRCEILSSLMKNRGFKEIYQIDGGIVRYGEKYGNDGLWEGSLYVFDRRMHMEFGNGVQDPGFIQLGHCVQCGAPTNKFEHCINEDECRELVLMCPDCYENPATRNCGREHCKEVAAEAAAAAAV,not soluble
22,MAQSTQEAEGEQQRRQAVLRERYLSFLQKSADKPATIEMCERTTVTATIKAFQPSSEHVIVGTVAVA,not soluble
